The sequences below were run on Saccharomyces cerevisiae (assay: transcriptional activation domain activity (GFP:mCherry ratio, weighted mean of sorted bins, harmonized to initial dataset scale) (arbitrary fluorescence ratio units); higher = stronger transcriptional activation). Settings: beta-estradiol 1 µM; induction time 4 h.
Experimental: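 53-aa protein tiles (fungal proteins plus yeast TF control tiles) fused C-terminally to a DBD-estrogen-binding domain-mCherry synthetic TF, integrated in S. cerevisiae (URA3 locus) with a GFP reporter. Cells were induced with 1 uM beta-estradiol for 4 h at 30 C, FACS-sorted into 8 bins by GFP:mCherry ratio and barcodes sequenced. Activity is the read-weighted mean bin fluorescence (GFP:mCherry), averaged over barcodes (median 12); tiles under 50 reads were discarded. New active-learning values were harmonized by linear fit onto the scale of the initial (Hummel et al.) dataset. The assay saturates at low and high signal.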
For “CKAHCGYILGHINIFQPINWIFVISSKVFPIDYVLYLLLILFFFSASVVGIAT”, the “transcriptional activation domain activity” value was 51900. For “CKAHCGYILGHINIFQPLNWIFVKSSKVFPIDYILYLLLVLFFFCSSVVGIAT”, the “transcriptional activation domain activity” value was 28100. For “CKRCSTLTCVGCGSRPLEKKLATEINVQGTKLTWCCSRGRLFVIWAILCGFDQ”, the “transcriptional activation domain activity” value was 43900. With “CKSFITVLMDLPHFTTSCVWVFFFSSFCFLWENASLLYRRLILSFFSFSFLFP” the “transcriptional activation domain activity” value was 66000. “CKVHAWLVGLGDVPPREMLQGLGRSLLVRSVVLSCHCLGRMSFVICIHAVHIM” was tested, and the “transcriptional activation domain activity” value was 42700. In the case of “CKWLGFILLFVPVILSFLFPFLFYSFFSSFVFFFFFFFFVMAVFLFLQSPRSF”, the “transcriptional activation domain activity” value is reported as 23300. For “CLAGKDLFGTLFGLRVIIQVVGILMSIPHTLVVTTRWIRRMLLVYFLDQLYYT”, the “transcriptional activation domain activity” value was 80600. “CLCLILLALLAVELMALFVVITLVILLLIVIVLSLILLFANLMLPLVFLLLYI” was tested, and the “transcriptional activation domain activity” value was 26400. In the case of “CLFFFSLFSLFILIFLSFLFFPPTSCFPSLYFLFYLSHFLLSFSFLYLYRYRF”, the “transcriptional activation domain activity” value is reported as 39500. For “CLHFQFSLLFLLCLYVCVGWIFYACILSYLPPLLFIVSFVTILQRTAFCFGEE”, the “transcriptional activation domain activity” value was 45000. For “CLILVFADSWLFLTFTGVLLHGVGIELNKFTCSLGIFSCILLYTSSKVLIYFF”, the “transcriptional activation domain activity” value was 42800. In the case of “CLIVARVVTVVFPFNFCFYFFVERILISVPVVCVCEVCVLEWCVWLRFLFACA”, the “transcriptional activation domain activity” value is reported as 32000. “CLLGTGSFWGLVYISLAYMDGFAFKYLLQFHHIIKLLWISTVGGLIMIAFWSF” was tested, and the “transcriptional activation domain activity” value was 52900. In the case of “CLLICIEYLTLSSLLDINVLLTTIVLHSLSLSSNLEVVRVVRRFFWVRCINLL”, the “transcriptional activation domain activity” value is reported as 47200. In the case of “CLLLAICCLYHVAFCIIVVLFWVAQVNAAPMEALQMVLAHVRYTFILSVSMVG”, the “transcriptional activation domain activity” value is reported as 63500. “CLMVVFLIVQLLVITVARRCRKTDARFVLERVFLKTHLGLYVFCLLITNFASG” was tested, and the “transcriptional activation domain activity” value was 50200. “CLRVRGVLILTIERLLNDFADAEYRKYAKAILHCHQPYPNSSDCYCQILRSLV” was tested, and the “transcriptional activation domain activity” value was 36900. In the case of “CLRYSLLLVSLGLGAEGSPPFLILFPWTPILLARFYCIGWWVRFGFIFVRLWP”, the “transcriptional activation domain activity” value is reported as 63200. In the case of “CLTQGLGICRDAENPEVNPDTATGEEGDVRTRCFQRDSLKDQVIVLAFLIITT”, the “transcriptional activation domain activity” value is reported as 28900. “CLVIRGRSRFQHGPFWLGSFGLLCNIVLLSWTLFSLVFFSFPFVKPIIPGKPF” was tested, and the “transcriptional activation domain activity” value was 76900. “CLYVHQQLRESLGLGWLRQDTFFNYTRDRICVWNLNRKYSAFSTITSTVTHVR” was tested, and the “transcriptional activation domain activity” value was 39700. With “CMELMLHYIYVVAISNSSPDWSAYTPFQLSMLGYFNLHHIWLKLLIPWRFFRL” the “transcriptional activation domain activity” value was 80500. For “CMIFGRWACGPALLAVIYAILGVGFAFALVVTRSFASKSYGDRLQFRLRHFFF”, the “transcriptional activation domain activity” value was 39600. In the case of “CMLRFVIWLCSKCVPYRSGVWEEFKFLLDHPRRCFTLLFPSSANWWLFWVLIL”, the “transcriptional activation domain activity” value is reported as 59700. With “CMLRFVIWLCSKWVPYRSGVWEEFKFLLDHPRRCFTLLFPSGANWWLFWVLIL” the “transcriptional activation domain activity” value was 60600. With “CNICVLLCQIIEVASLVEQRDTIELIKTRYLNRLKLMKPDDVLQTYVSTLLNA” the “transcriptional activation domain activity” value was 32400. In the case of “CNVLCYGYNVVLLVMKLYVKRVFVSPRGVRQPLVLAPYEHTLYIRFSCQPITD”, the “transcriptional activation domain activity” value is reported as 29300. In the case of “CNVLFYLELVRALVLLHRWDLNTWMLQYSTKTMPPIQPTPLDDFVKYITTFPG”, the “transcriptional activation domain activity” value is reported as 42800. “CPACLSVCTYYLRCLLCSAALYTMGLLAFWWRFLFWHDCILLWSLSLFPFTLS” was tested, and the “transcriptional activation domain activity” value was 87400. With “CPELYQTHLQITGIITIDTYFSFNDYDAWVQLRDVLDLWLGRAWVFNVVIWKY” the “transcriptional activation domain activity” value was 61500. For “CPFLKCTVYLRTIKHYLFVLVFLPLDALFSIALSCYALSYARVLVVPLALSIF”, the “transcriptional activation domain activity” value was 53700. In the case of “CPQPLIYCKPCKILQTQYDRLHINHMTFNMISHHLYRGLLPLLVVVCLLGKIV”, the “transcriptional activation domain activity” value is reported as 62100. With “CPSFPSSFFVWVFEPRVAVPNLLGIIYLFCLVSHLPSSLFILSGTLLPLIVCL” the “transcriptional activation domain activity” value was 61300. With “CPVHTTLHVPHFLIWSSHILFFFLVFFFVFSLFPFPLVCLVAFFLVLSALPPS” the “transcriptional activation domain activity” value was 42700. With “CPYYPMICPSFLPLLLVLLFSLYLFLSSPLDFFLPLDFLIHTHNCTFLRTKGQ” the “transcriptional activation domain activity” value was 40000. With “CQRQWADRVQMTLRQMYDLLLIEITRPRYSVFLTSGHSMEEMASVFRLIACIA” the “transcriptional activation domain activity” value was 44400. For “CQWWKYLMERLLLLPPLVRVQIILLLFAFVIPKLHLHAHTLACQLVFSLNFLL”, the “transcriptional activation domain activity” value was 51200. For “CRESRGNRGTGEGGAGEQGKGEQGKGEQGKGEQGNRGRGSRETGEGGAGKQGN”, the “transcriptional activation domain activity” value was 29800. “CRGFGFWVRVLLGICGVCGVVALRTYAIYHVFQLNLPSRGLRFYLPLLFYIAC” was tested, and the “transcriptional activation domain activity” value was 57100. For “CRGIYTLHTTNLMIVDDIVYLWRYDRQNVIQSTGLNFITDMPYFMALLAVFQR”, the “transcriptional activation domain activity” value was 48500. “CRLLSSSVFLFSFFPFFLFFFYCLLVFFAWFLILRGCFVVHCLCKFGYDWTGG” was tested, and the “transcriptional activation domain activity” value was 30300. “CRLYRLGFFVFLLVLSGLSFLSFYQVYRLFYFLLLFLFFSLFVFFSFCLILYF” was tested, and the “transcriptional activation domain activity” value was 57400. “CSCSAGTRTSSSASSSAWRGASSSSSSRCSATRSSIARSRRTRSSCCARTRTC” was tested, and the “transcriptional activation domain activity” value was 36200. “CSNIAEQADQCDFVKSYCDGFSGYYLMLYYCSPFWRPISIFILLSCLLMLFGA” was tested, and the “transcriptional activation domain activity” value was 30700. With “CSNIGAQKNQCEFVQLNCHGFNALYLELFYCSKLWKPIIIAILLSCLLMLFGA” the “transcriptional activation domain activity” value was 42200. With “CTVVFLACTVVYGFMVVTSLLFHLSGFLFHVTTTFPFFFFFFFTLLFFLLHTF” the “transcriptional activation domain activity” value was 38000. “CTYVRESIKQFNGTYSKALEVRQRSIQFLGQRTKLCWYWLMLRYHLSTLMLVD” was tested, and the “transcriptional activation domain activity” value was 39700. “CVCRMILAPLLHLFISFFLLCMAAVASPPLRWILWYYWGCFTVQEVNWHMLRF” was tested, and the “transcriptional activation domain activity” value was 45500. “CVCVGVGIGVGGLVLPLLFFLSFTSFSSLVTFLFSLSFPFSFFLFFLSFFLGL” was tested, and the “transcriptional activation domain activity” value was 46000. For “CVFDMPCLWYGVYLVWFGVFSYLLLWCFALGAYYSSTVWSILWLIAAGSWCRQ”, the “transcriptional activation domain activity” value was 73300. “CVFLSILCLFIHLLLIVSLLLFFCHCLFFSVPITLVCFSMTIHLTPKIFILLF” was tested, and the “transcriptional activation domain activity” value was 52700. “CVFRLGFLFIFLVSYSIAWEWFFLFSLWHLCLLPLDIISIFLLFLGPLLWRSF” was tested, and the “transcriptional activation domain activity” value was 31500. With “CVGFANYCHFIRFLVYVGLGAIYLMVLLGCRLSSILYHPASATEWVLLGLNLF” the “transcriptional activation domain activity” value was 63000. With “CVGLLCLLDTLHLCFSIHMMYFYLIHNFGNVKAVFDIIWSLKGLGTVQVLLIW” the “transcriptional activation domain activity” value was 45200. For “CVRVLCISFSLTLSSSCLLVGIVLRWSLCCLLYFVCVPLHLDTLLSFSSIPTL”, the “transcriptional activation domain activity” value was 50600. In the case of “CVWVYTEIFPEFVWLLIFKLLKSMPEMTRRTGIVVIRSLVSCGIQIGDTFTHK”, the “transcriptional activation domain activity” value is reported as 50600. With “CWILGFISVFTFAYLVLTVLPNLYLNCPYSTPLSELSWRLSQHLLLLILHLIR” the “transcriptional activation domain activity” value was 69500. With “CWVVWGRRWLIVLLPIICLITATVSKVLQVYLVNSNAYMLYEVFLMLYISFVL” the “transcriptional activation domain activity” value was 44100. For “CWWPFGIPVYMFFHAPETVHYSYFLFFFLSLSLPAMLNIYLVIFIVSWLKSVP”, the “transcriptional activation domain activity” value was 38200. In the case of “CYFLLLLHLPCYRFLFLFLLWLLGQVSHFFLLSHHLIILFWGFVILYSYYIST”, the “transcriptional activation domain activity” value is reported as 63000. In the case of “CYNLNLVFNWIIRCIISIFLVFMISFLPLFLQELVECGTWKAIWCLMKQFTSL”, the “transcriptional activation domain activity” value is reported as 35400. “CYVLRDVFFCTVFFAFAGSIEALLQSGFCGYFPLTSTWQIVLLRALMWMTYWW” was tested, and the “transcriptional activation domain activity” value was 51000. For “CYWKAKAPPYVLPMLILSKRLHSIFVLRCFNDCFAVLFLWLAILCLQRRSWQL”, the “transcriptional activation domain activity” value was 67900. With “DAAAAAAAKKKKQQQQQQQEKEEEAKKEKASSASSASRASSISAHKASVSAAK” the “transcriptional activation domain activity” value was 19700. For “DAAAEKSGNDVSEKSSGPRAKRRKVDPELDTVDEEPKKQRSKKRVKVSVPNGI”, the “transcriptional activation domain activity” value was 45800. With “DAAKPAQGLFGGALAAGKSGETPKPAGSLFGAPSSSTKTGEEAKPAGGLFGAG” the “transcriptional activation domain activity” value was 26100. With “DAARGGYQSAGGAGTGSDSETNRGRGRGGRGGFRGERGGRGRGRGATPAKTEG” the “transcriptional activation domain activity” value was 27200. “DADEAEGAPDAAGEGAAKKKKKRKPRKKKKGGAGGGGGGGPKVQTSPPRVPIH” was tested, and the “transcriptional activation domain activity” value was 11400. With “DADGNPTGDGEPPKKRRRRQALSCTECKRRKIKCDRNHPCSPCARRGDGQKCQ” the “transcriptional activation domain activity” value was 13000. With “DADMIVRLALKARLRWLLPKLTWLRIYFDGLYSNGDVLRVLILPKLLHLLIMC” the “transcriptional activation domain activity” value was 66000. “DADSAQVAGECVVCQDEEANVVIVECGYVSLIIHLTLHRFIVLASLVISHYAQ” was tested, and the “transcriptional activation domain activity” value was 63900. “DAESDNEEGAAGAADKKKKKKKKGASTAATSTPAEDEAAAAKGKKKPAAPLAA” was tested, and the “transcriptional activation domain activity” value was 53700. With “DAEYMCQYHGSLIGKHFKSLAQVMPFVIYGLVHEDVLHAWNIIGTLLVLLWHT” the “transcriptional activation domain activity” value was 33500. With “DAFADGDGDATVTEGETSEKPKKARKKRAKKDTGEDDAEAKPKKKAKRKAKAA” the “transcriptional activation domain activity” value was 14500. For “DAGSGGGEVRRAGGSGILKESGTFGDCRCLSRYASAASLRVHVLLCWENALSA”, the “transcriptional activation domain activity” value was 40400. With “DAKSGTSGGLFGSAAPASSTAPNSSGAATAGASSTTTTAPAGGLFGAKPAAAS” the “transcriptional activation domain activity” value was under 6570. “DALGLRRPSLYYKALVAGQCIFFMALCYTYRMIPYLDQKKIKTLKKVFFRIII” was tested, and the “transcriptional activation domain activity” value was 68800. With “DANASSSSTSSTQANNYIDFHWNNIKPELRDLICQSYKDFLINELGPDQIDLP” the “transcriptional activation domain activity” value was 51100. “DANDGRRTLLVVLGDHGMTAAGNHGGASAGETSAALVLASPLFSTVASAPARR” was tested, and the “transcriptional activation domain activity” value was under 6570.
